Laboratory results from doi:10.1101/2025.02.04.636384 (bioRxiv, 2025).

Target: the molecule itself
Experiment: SEC

B1: Aeropyrum pernix Kv (KvAP) channel, wild type (natural protein, UniProt Q9YDF8 1-295, looked up)
chain: MSVERWVFPGCSVMARFRRGLSDLGGRVRNIGDVMEHPLVELGVSYAALLSVIVVVVEYTMQLSGEYLVRLYLVDLILVIILWADYAYRAYKSGDPAGYVKKTLYEIPALVPAGLLALIEGHLAGLGLFRLVRLLRFLRILLIISRGSKFLSAIADAADKIRFYHLFGAVMLTVLYGAFAIYIVEYPDPNSSIKSVFDALWWAVVTATTVGYGDVVPATPIGKVIGIAVMLTGISALTLLIGTVSNMFQKILVGEPEPSCSPAKLAEMVSSMSEEEFEEFVRTLKNLRRLENSMK
  stoichiometry N: 4
